These results are taken from patent US20240043552A1 (Eli Lilly, published 2024).

One test concerns the target T1, hHGFR(cMet)-Fc (human, UniProt P08581 25-932).
T1 construct: Bought (R&D systems); Coated on the plate; not shown: Fc of the bought fusion protein
In words: sandwich ELISA with mis-matched antigens. The method, boiled down:
(§1)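 Plates coated with 1 μg/mL hHER-2-Fc or hHGFR(cMet)-Fc, casein-blocked, then bispecific or parental IgG added in 1:3 serial dilution for 1 hr at room temperature. Second-arm binding detected with 1 μg/mL hEGFR-Fc-biotin or hLTβR-Fc-biotin, streptavidin-AP and PNPP, read at 405 nm.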
A general note: ELISA stands for enzyme-linked immunosorbent assay.

In a further test the target is T2, hLTβR-Fc-biotin (human, UniProt P36941 28-227, limits assumed, biotin-labelled with EZ-LINK Sulfo-NHS-LC-Biotin).
T2 construct: Bought (R&D systems); Detection antigen of the sandwich; also called LTPR (as printed once); not shown: Fc of the bought fusion protein
Nature of the test: sandwich ELISA with mis-matched antigens. The method, boiled down:
as §1

Substitutions are numbered along the chain they refer to.

T2 sequence (P36941 28-227 limits assumed): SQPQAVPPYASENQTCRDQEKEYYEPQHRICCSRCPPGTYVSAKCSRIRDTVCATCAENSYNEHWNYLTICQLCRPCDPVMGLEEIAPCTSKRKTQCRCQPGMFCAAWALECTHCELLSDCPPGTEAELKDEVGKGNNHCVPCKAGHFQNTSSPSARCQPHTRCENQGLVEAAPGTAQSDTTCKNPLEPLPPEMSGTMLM
T1 sequence (P08581 25-932): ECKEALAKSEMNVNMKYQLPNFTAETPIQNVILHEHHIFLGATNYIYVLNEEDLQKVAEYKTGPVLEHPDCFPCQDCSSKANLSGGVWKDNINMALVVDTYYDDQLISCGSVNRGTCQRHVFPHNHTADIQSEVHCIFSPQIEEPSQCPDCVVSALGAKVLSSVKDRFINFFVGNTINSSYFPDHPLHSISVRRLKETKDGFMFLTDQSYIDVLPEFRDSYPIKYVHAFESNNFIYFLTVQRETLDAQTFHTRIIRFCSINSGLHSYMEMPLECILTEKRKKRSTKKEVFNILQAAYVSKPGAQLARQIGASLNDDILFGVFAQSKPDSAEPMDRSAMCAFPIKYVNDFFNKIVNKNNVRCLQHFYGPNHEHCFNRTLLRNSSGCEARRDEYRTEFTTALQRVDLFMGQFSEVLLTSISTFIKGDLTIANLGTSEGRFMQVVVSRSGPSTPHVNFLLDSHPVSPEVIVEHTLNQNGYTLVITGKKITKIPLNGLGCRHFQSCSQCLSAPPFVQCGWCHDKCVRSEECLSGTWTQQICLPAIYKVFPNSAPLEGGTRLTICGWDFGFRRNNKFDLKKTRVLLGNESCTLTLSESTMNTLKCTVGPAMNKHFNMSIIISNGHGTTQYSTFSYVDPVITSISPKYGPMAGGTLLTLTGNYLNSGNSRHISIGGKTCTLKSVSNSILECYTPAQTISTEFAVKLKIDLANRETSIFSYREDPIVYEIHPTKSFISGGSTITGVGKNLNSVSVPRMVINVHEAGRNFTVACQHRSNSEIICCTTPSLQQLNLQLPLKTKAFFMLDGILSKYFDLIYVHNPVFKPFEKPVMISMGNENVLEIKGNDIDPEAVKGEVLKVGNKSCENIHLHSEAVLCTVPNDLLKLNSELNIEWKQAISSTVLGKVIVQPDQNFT

B1: Pertuzumab × Matuzumab IgG BsAb, CH1/Cκ design 14.3.1.1 (bispecific antibody)
heavy 1: EVQLVESGGGLVQPGGSLRLSCAASGFTFTDYTMDWVRKAPGKGLEWVADVNPNSGGSIYNQEFKGRFTLSVDRSKNTLYLQMNSLRAEDTAVYYCARNLGPSFYFDYWGQGTLVTVSSASTKGPSVFPLAPSSKSTSGGTAALGCLVADYFPEPVTVSWNSGALTSGVHTFPAVLQSSGLYSLASVVTVPSSSLGTQTYICNVNHKPSNTKVDKKVEPKSCDKTHTCPPCPAPELLGGPSVFLFPPKPKDTLMISRTPEVTCVVVDVSHEDPEVKFNWYVDGVEVHNAKTKPREEQYQSTYRVVSVLTVLHQDWLNGKEYKCKVSNKALPAPIEKTISKAKGQPREPQVYTLPPSREEMTDNQVSLTCLVKGFYPSDIAVEWESNGQPENNYKTTPPVLMSDGSFFLASKLTVDKSRWQQGNVFSCSVMHEALHNHYTQKSLSLSPG
light 1: RIQMTQSPSSLSASVGDRVTITCKASQDVSIGVAWYQDKPGKAPKLLIYSASYRYTGVPSRFSGSGSGTDFTLTISSLQPEDFATYYCQQYYIYPYTFGQGTKVEIKRTVAAPSVFIFPPSDEQLKSGTARVVCLLNNFYPREAKVQWKVDNALQSGNSQESVTEQDSKDSTYSLISTLTLSKADYEKHKVYACEVTHQGLSSPVTKSFNRGEC
heavy 2: QVQLVQSGAEVKKPGASVKVSCKASGYTFTSHWMHWVRYAPGQGLEWIGEFNPSNGRTNYNEKFKSKATMTVDTSTNTAYMELSSLRSEDTAVYYCASRDYDYDGRYFDYWGRGTLVTVSSASTKGPSVFPLAPSSKSTSGGTAALGCLVKDYFPEPVTVSWNSGALTSGVHTFPAVLQSSGLYSLSSVVTVPSSSLGTQTYICNVNHKPSNTKVDEKVEPKSCDKTHTCPPCPAPELLGGPSVFLFPPKPKDTLMISRTPEVTCVVVDVSHEDPEVKFNWYVDGVEVHNAKTKPREEQYQSTYRVVSVLTVLHQDWLNGKEYKCKVSNKALPAPIEKTISKAKGQPRRPRVYTLPPSREEMTKNQVSLVCLVKGFYPSDIAVEWESNGQPENNYKTTPPVLDSDGSFFLYSVLTVDKSRWQQGNVFSCSVMHEALHNHYTQKSLSLSPG
light 2: DIQMTQSPSSLSASVGDRVTITCSASSSVTYMYWYQRKPGDAPKLLIYDTSNLASGVPSRFSGSGSGTDYTFTISSLQPEDIATYYCQQWSSHIFTFGQGTKVEIKRTVAAPSVFIFPPSDKQLKSGTASVVCLLNNFYPREAKVQWKVDNALQSGNSQESVTEQDSKDSTYSLSSTLTLSKADYEKHKVYACEVTHQGLSSPVTKSFNRGEC
notes: Human IgG1; also called Pertuzumab × Matuzumab 14.3.1.1
Turning to B1, the binding result in the test with hHGFR(cMet)-Fc and with hLTβR-Fc-biotin was “no binding” each time.

B2: Pertuzumab × Matuzumab IgG BsAb, CH1/Cκ design 14.3.1.2 (bispecific antibody)
heavy 1: B1 heavy 1 with A185G
light 1: B1 light 1
heavy 2: B1 heavy 2
light 2: B1 light 2
notes: Human IgG1; also called Pertuzumab × Matuzumab 14.3.1.2
Turning to B2, the binding result with hHGFR(cMet)-Fc and with hLTβR-Fc-biotin was “no binding” throughout.
